± gives the standard deviation of the averaged measurements.
Key:
Saccharomyces cerevisiae [1] = assay: protein stability index of tFT-peptide fusion (C-terminal peptide) (PSI (0-1 scale)); higher = more stable (slower turnover)
Description: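 MPS profiling in S. cerevisiae of the tFT-X12 degron library: putative degron peptides plus stable controls, 12 aa, fused to the C-terminus of a sfGFP-mCherry timer. Cells are FACS-sorted into 8 mCherry/sfGFP bins and deep-sequenced. PSI runs from 0 (unstable) to 1 (stable). Backgrounds are wild type, das1Δ and doa10Δ at 30 °C, and wild type, das1Δ, cdc34-1 and cdc53-1 at 37 °C; 2-3 technical replicates each.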

Saccharomyces cerevisiae [2] = assay: as above; details: genetic background: wild type; temperature: 30 C
[3] = genetic background: cdc34-1, temperature: 37 C
[4] = genetic background: cdc53-1, temperature: 37 C
[5] = genetic background: das1 deletion, temperature: 30 C
[6] = genetic background: das1 deletion, temperature: 37 C
[7] = genetic background: doa10 deletion, temperature: 30 C
[8] = genetic background: wild type, temperature: 30 C
[9] = genetic background: wild type, temperature: 37 C
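Note: PSI is a weighted mean of sequencing reads over stability bins, variants kept only with over 10 reads, mCherry proximal and sfGFP distal, peptide attached via GGGS linker.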

| Sequence | protein stability index (Saccharomyces cerevisiae [1]; [3]) | protein stability index (Saccharomyces cerevisiae [1]; [4]) | protein stability index (Saccharomyces cerevisiae [1]; [5]) | protein stability index (Saccharomyces cerevisiae [1]; [6]) | protein stability index (Saccharomyces cerevisiae [1]; [7]) | protein stability index (Saccharomyces cerevisiae [1]; [8]) | protein stability index (Saccharomyces cerevisiae [1]; [9]) | protein stability index (Saccharomyces cerevisiae [2]) |
| --- | --- | --- | --- | --- | --- | --- | --- | --- |
| CSFCSGMILLLS | 0.522 ± 0.055 | 0.557 ± 0.018 | 0.433 ± 0.02 | 0.583 ± 0.0064 | 0.391 ± 0.004 | 0.323 ± 0.044 | 0.527 ± 0.028 | 0.418 ± 0.0062 |
| CTAWWVKGVAVK | 0.622 ± 0.033 | 0.6395 ± 0.0018 | 0.443 ± 0.031 | 0.643 ± 0.023 | 0.424 ± 0.028 | 0.435 ± 0.018 | 0.624 ± 0.029 | 0.525 ± 0.049 |
| CVILVSFFCYSA | 0.142 ± 0.021 | 0.221 ± 0.014 | 0.142 ± 0.059 | 0.322 ± 0.0071 | 0.119 ± 0.0041 | 0.132 ± 0.059 | 0.284 ± 0.0073 | 0.2201 ± 0.00089 |
| CVLLVFLHLCLA | 0.292 ± 0.0051 | 0.392 ± 0.022 | 0.283 ± 0.027 | 0.4448 ± 0.0025 | 0.256 ± 0.014 | 0.263 ± 0.049 | 0.402 ± 0.0075 | 0.381 ± 0.0019 |
| CVLVLLLRLAFL | 0.5506 ± 0.0053 | 0.5516 ± 0.0013 | 0.44 ± 0.032 | 0.5995 ± 0.0041 | 0.467 ± 0.027 | 0.434 ± 0.0093 | 0.561 ± 0.015 | 0.4885 ± 0.0022 |
| CWILLFGCVWVG | 0.1785 ± 0.0003 | 0.335 ± 0.049 | 0.233 ± 0.023 | 0.397 ± 0.033 | 0.221 ± 0.015 | 0.234 ± 0.0095 | 0.336 ± 0.037 | 0.263 ± 0.0084 |
| CWSSVGLSVCGC | 0.676 ± 0.026 | 0.7508 ± 0.0058 | 0.619 ± 0.031 | 0.7193 ± 0.0065 | 0.597 ± 0.037 | 0.599 ± 0.012 | 0.693 ± 0.024 | 0.601 ± 0.16 |
| CWYRAVSIQYVL | 0.435 ± 0.027 | 0.53 ± 0.025 | 0.367 ± 0.0057 | 0.466 ± 0.021 | 0.26 ± 0.03 | 0.272 ± 0.027 | 0.412 ± 0.0089 | 0.306 ± 0.015 |
| DFWMLLFGIIFA | 0.488 ± 0.041 | 0.521 ± 0.011 | 0.389 ± 0.027 | 0.565 ± 0.033 | 0.387 ± 0.015 | 0.4 ± 0.027 | 0.538 ± 0.017 | 0.449 ± 0.019 |
| DHSWGGLLICTC | 0.476 ± 0.011 | 0.492 ± 0.042 | 0.343 ± 0.049 | 0.546 ± 0.022 | 0.33 ± 0.026 | 0.364 ± 0.028 | 0.513 ± 0.017 | 0.473 ± 0.039 |
| DILCGRCMIVGA | 0.592 ± 0.045 | 0.573 ± 0.023 | 0.415 ± 0.041 | 0.6044 ± 0.0056 | 0.393 ± 0.0059 | 0.422 ± 0.011 | 0.555 ± 0.013 | 0.495 ± 0.018 |
| DIRLWISCTLWF | 0.244 ± 0.019 | 0.361 ± 0.043 | 0.25 ± 0.029 | 0.425 ± 0.014 | 0.26 ± 0.0053 | 0.242 ± 0.025 | 0.37 ± 0.019 | 0.324 ± 0.013 |
| DLFVFFVFHFFL | 0.425 ± 0.032 | 0.532 ± 0.029 | 0.372 ± 0.041 | 0.589 ± 0.013 | 0.377 ± 0.015 | 0.38 ± 0.033 | 0.5686 ± 0.0029 | 0.457 ± 0.026 |
| DLRFAWLLSCFS | 0.44 ± 0.017 | 0.47 ± 0.011 | 0.331 ± 0.034 | 0.501 ± 0.014 | 0.293 ± 0.006 | 0.334 ± 0.022 | 0.476 ± 0.0054 | 0.432 ± 0.015 |
| DSSRRKRLICMN | 0.611 ± 0.016 | 0.702 ± 0.032 | 0.656 ± 0.015 | 0.731 ± 0.008 | 0.18 ± 0.016 | 0.21 ± 0.032 | 0.341 ± 0.017 | 0.25 ± 0.093 |
| DVWEHLHKQHNM | 0.704 ± 0.015 | 0.765 ± 0.032 | 0.699 ± 0.024 | 0.753 ± 0.032 | 0.274 ± 0.021 | 0.348 ± 0.053 | 0.62 ± 0.032 | 0.499 ± 0.085 |
| EGVVLLVDCVAT | 0.4623 ± 0.0015 | 0.465 ± 0.02 | 0.301 ± 0.031 | 0.514 ± 0.0093 | 0.26 ± 0.0074 | 0.308 ± 0.02 | 0.492 ± 0.02 | 0.41 ± 0.025 |
| ERRWKRKVIGLC | 0.632 ± 0.034 | 0.736 ± 0.031 | 0.594 ± 0.015 | 0.734 ± 0.0071 | 0.115 ± 0.025 | 0.131 ± 0.0095 | 0.214 ± 0.024 | 0.274 ± 0.047 |
| ERRWVLVAWRFK | 0.555 ± 0.026 | 0.616 ± 0.013 | 0.442 ± 0.031 | 0.619 ± 0.032 | 0.416 ± 0.0077 | 0.442 ± 0.03 | 0.6 ± 0.017 | 0.494 ± 0.02 |
| ESSRNILLWRTI | 0.69 ± 0.041 | 0.7554 ± 0.00093 | 0.641 ± 0.048 | 0.755 ± 0.032 | 0.247 ± 0.046 | 0.264 ± 0.037 | 0.565 ± 0.018 | 0.443 ± 0.073 |

| Sequence | protein stability index (Saccharomyces cerevisiae [1]; [3]) | protein stability index (Saccharomyces cerevisiae [1]; [4]) | protein stability index (Saccharomyces cerevisiae [1]; [5]) | protein stability index (Saccharomyces cerevisiae [1]; [6]) | protein stability index (Saccharomyces cerevisiae [1]; [7]) | protein stability index (Saccharomyces cerevisiae [1]; [8]) | protein stability index (Saccharomyces cerevisiae [1]; [9]) | protein stability index (Saccharomyces cerevisiae [2]) |
| --- | --- | --- | --- | --- | --- | --- | --- | --- |
| ETYCLPRVASGI | 0.695 ± 0.021 | 0.733 ± 0.026 | 0.655 ± 0.013 | 0.733 ± 0.029 | 0.666 ± 0.02 | 0.665 ± 0.021 | 0.708 ± 0.02 | 0.733 ± 0.0075 |
| EWAILSLGVMCV | 0.0657 ± 0.03 | 0.118 ± 0.085 | 0.193 ± 0.013 | 0.2 ± 0.0075 | 0.158 ± 0.0049 | 0.184 ± 0.032 | 0.173 ± 0.011 | 0.225 ± 0.014 |
| EYGLLLTLLAYY | 0.4526 ± 0.0018 | 0.508 ± 0.047 | 0.351 ± 0.026 | 0.549 ± 0.0092 | 0.2986 ± 0.0026 | 0.324 ± 0.021 | 0.5128 ± 0.0022 | 0.362 ± 0.044 |
| FCDFLFVFPLFS | 0.562 ± 0.016 | 0.596 ± 0.013 | 0.507 ± 0.019 | 0.6583 ± 0.0028 | 0.589 ± 0.011 | 0.479 ± 0.024 | 0.6321 ± 0.0062 | 0.515 ± 0.22 |
| FCLGFRFFVFFL | 0.26 ± 0.011 | 0.291 ± 0.018 | 0.271 ± 0.027 | 0.408 ± 0.013 | 0.208 ± 0.012 | 0.163 ± 0.022 | 0.288 ± 0.021 | 0.218 ± 0.032 |
| FCRLTFCFFAFL | 0.573 ± 0.051 | 0.646 ± 0.0074 | 0.499 ± 0.019 | 0.641 ± 0.0092 | 0.446 ± 0.017 | 0.438 ± 0.014 | 0.5586 ± 0.00064 | 0.47 ± 0.035 |
| FCTSSRLLYCSA | 0.177 ± 0.0029 | 0.222 ± 0.0037 | 0.206 ± 0.026 | 0.3192 ± 0.00046 | 0.175 ± 0.0018 | 0.202 ± 0.026 | 0.278 ± 0.0096 | 0.302 ± 0.01 |
| FCTVYFVCVWEM | 0.1957 ± 0.0014 | 0.273 ± 0.022 | 0.209 ± 0.043 | 0.393 ± 0.033 | 0.177 ± 0.03 | 0.212 ± 0.015 | 0.362 ± 0.014 | 0.334 ± 0.055 |
| FECLLFVNLLVI | 0.274 ± 0.0029 | 0.345 ± 0.014 | 0.24 ± 0.042 | 0.425 ± 0.018 | 0.153 ± 0.014 | 0.188 ± 0.03 | 0.349 ± 0.012 | 0.288 ± 0.02 |
| FFCCRLPCLFVL | 0.369 ± 0.016 | 0.407 ± 0.0051 | 0.363 ± 0.027 | 0.4824 ± 0.0016 | 0.174 ± 0.0061 | 0.174 ± 0.011 | 0.194 ± 0.0073 | 0.252 ± 0.022 |
| FFCLFCLSCWVL | 0.403 ± 0.023 | 0.422 ± 0.02 | 0.331 ± 0.015 | 0.444 ± 0.0054 | 0.323 ± 0.011 | 0.312 ± 0.04 | 0.3863 ± 0.0017 | 0.436 ± 0.054 |
| GPPPPPSLLLLC | 0.6 ± 0.04 | 0.712 ± 0.0078 | 0.614 ± 0.025 | 0.721 ± 0.011 | 0.201 ± 0.0072 | 0.211 ± 0.015 | 0.345 ± 0.02 |  |
| GVAVVWVGLGVT | 0.325 ± 0.011 | 0.445 ± 0.043 | 0.27 ± 0.018 | 0.474 ± 0.0068 | 0.227 ± 0.013 | 0.262 ± 0.017 | 0.4519 ± 0.0017 |  |
| LDVGGRRGGEHC | 0.598 ± 0.071 | 0.646 ± 0.096 | 0.554 ± 0.024 | 0.6665 ± 0.0011 | 0.583 ± 0.092 | 0.594 ± 0.077 | 0.598 ± 0.011 |  |
| LFVLVLLCWMLT | 0.347 ± 0.038 | 0.462 ± 0.014 | 0.373 ± 0.029 | 0.42739 ± 0.00025 | 0.357 ± 0.012 | 0.34 ± 0.013 | 0.434 ± 0.03 |  |
| LWGVGFLFVLVG | 0.1858 ± 0.0014 | 0.268 ± 0.024 | 0.229 ± 0.036 | 0.403 ± 0.039 | 0.105 ± 0.0094 | 0.131 ± 0.017 | 0.183 ± 0.014 |  |
| PHSMRTTTIMCS | 0.357 ± 0.034 | 0.444 ± 0.021 | 0.296 ± 0.031 | 0.516 ± 0.0075 | 0.214 ± 0.0032 | 0.243 ± 0.056 | 0.436 ± 0.0045 |  |
| RPPPAANFTRSS | 0.655 ± 0.022 | 0.688 ± 0.024 | 0.665 ± 0.016 | 0.698 ± 0.012 | 0.665 ± 0.018 | 0.661 ± 0.0078 | 0.679 ± 0.012 |  |
| YGETRGGGRGRW | 0.587 ± 0.049 | 0.887 ± 0.038 | 0.475 ± 0.034 | 0.766 ± 0.16 | 0.563 ± 0.13 | 0.538 ± 0.12 | 0.65 ± 0.11 |  |
| YVFSPLSCWASV | 0.692 ± 0.056 | 0.74 ± 0.0086 | 0.608 ± 0.021 | 0.7459 ± 0.0044 | 0.603 ± 0.037 | 0.596 ± 0.017 | 0.695 ± 0.019 |  |
